Our source for the stoichiometry N values is paper PMC9937993, “Structures of the NDP-pyranose mutase belonging to glycosyltransferase family 75 reveal residues important for Mn^2+ coordination and substrate binding” (The Journal of Biological Chemistry, 2023).

For assay [1], the target named is MtdL E341K mutant (Marinactinospora thermotolerans SCSIO 00652). Put plainly: SEC-MALS; static light scattering (SLC): Superdex 200 Increase column on an Akta Pure L system, on-line eight-angle static light scattering detector (DAWN HELEOS II) and differential refractive index detector; molar masses by ASTRA 7.0.1.
The target of assay [2] is MtdL wildtype, His6-tagged (Marinactinospora thermotolerans SCSIO 00652). Described as above.

The stoichiometry N is the number of molecules, sites or subunits per partner or assembly. On to MtdL E341K mutant (enzyme), for which the stoichiometry N in assay [1] worked out at 2.
For MtdL wildtype, His6-tagged (enzyme), in assay [2], the stoichiometry N was 4.
